The target of the data set is omega-dCas9 clone 4 (evolved SpCas9) D10A,H840A,E1219V; residues I122 and D182 also mutated, substitutions not stated (Streptococcus pyogenes) (UniProt Q99ZW2). The experiment in a line: cell_activity. As to conditions: E. coli activation.

For the setting “PAM AGG”, “GGAGCCCACCGAGUACCUGG / GGAGCCCACCGAGTACCTGGAGG / CCTCCAGGTACTCGGTGGGCTCC [Doench 2 sgRNA (spacer) ; Doench 2 target, AGG PAM]” returned an activity (luciferase activity) of 238.
For “GGAGCCCACCGAGUACCUGG / GGAGCCCACCGAGTACCTGGGAG / CTCCCAGGTACTCGGTGGGCTCC [Doench 2 sgRNA (spacer) ; Doench 2 target, GAG PAM]”, the activity (luciferase activity) (PAM GAG) came to 186.
The sequence “GGAGCCCACCGAGUACCUGG / GGAGCCCACCGAGTACCTGGGTG / CACCCAGGTACTCGGTGGGCTCC [Doench 2 sgRNA (spacer) ; Doench 2 target, GTG PAM]” displayed an activity (luciferase activity) (PAM GTG) of 120.

The values are drawn from US12043852.
